{
  "source": "patent US12269859B2",
  "about": "“Synthetic immune receptors and methods of use thereof” (Angeles Therapeutics, Inc., priority 2016, dated 2025)",
  "tested_on": "target antigen-expressing cell line",
  "assay": "Jurkat NFAT-GFP assay, coculture with target cell lines expressing the respective target antigen (summary Table 10A)",
  "format": "cell-based, human",
  "parameters": "key: The signs +/−, +, 2+ etc. after the name of the cell lines indicate the relative degree of positivity on the Jurkat-NFAT-GFP assay as measured by the % GFP positive cells; +: relative degree of positivity on the Jurkat-NFAT-GFP assay as measured by the % GFP positive cells; 2+: relative degree of positivity on the Jurkat-NFAT-GFP assay as measured by the % GFP positive cells",
  "conditions": "relative % GFP positive cells; for NFAT-GFP ASSAY Positive Cell lines: NALM6: SIR-expressing Jurkat-NFAT-GFP cells cocultured with NALM6; for NFAT-GFP ASSAY Positive Cell lines: RAJI: SIR-expressing Jurkat-NFAT-GFP cells cocultured with RAJI",
  "outline": "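Read-out: % GFP+ cells by FACS. SIR-transduced, puromycin-selected Jurkat NFAT-GFP (IL-2 promoter reporter) cocultured ~4–18 h with target line, E:T ~1:2; parental cells as control; graded +/−, +, 2+ relative to parental.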",
  "data": [
    {"molecule": "040417-R02 (protein) MALPVTALLLPLALLLHAARPEVQLVESGGGLVQPGRSLRLSCAASGFTFDDYAMHWVRQAPGKGLEWVSGISWNSGSIGYADSVKGRFTISRDNAKNSLYLQMNSLRAEDTALYYCAKDKGGGYYDFWSGSDYWGQGTLVTVSSLEDLKNVFPPEVAVFEPSKAEIAHTQKATLVCLATGFYPDHVELSWWVNGKEVHSGVCTDPQPLKEQPALNDSRYCLSSRLRVSATFWQNPRNHFRCQVQFYGLSENDEWTQDRAKPVTQIVSAEAWGRADCGITSASYHQGVLSATILYEILLGKATLYAVLVSALVLMAMVKRKDSRGRAKRSGSGATNFSLLKQAGDVEENPGPTSMDWIWRILFLVGAATGAHSFESSELTQDPAVSVALGQTVRITCQGDSLRSYYASWYQQKPGQAPVLVIYGKNNRPSGIPDRFSGSSSGNTASLTITGAQAEDEADYYCNSRDSSGWVFGGGTKLTVLTRIQNPDPAVYQLRDSKSSDKSVCLFTDFDSQTNVSQSKDSDVYITDKCVLDMRSMDFKSNSAVAWSNKSDFACANAFNNSIIPEDTFFPSSDVPCDVKLVEKSFETDTNLNFQNLSVIGFRILLLKVAGFNLLMTLRLWSSRAKRSGSGVKQTLNFDLLKLAGDVESNPGPSRGHMTEYKPTVRLATRDDVPRAVRTLAAAFADYPATRHTVDPDRHIERVTELQELFLTRVGLDIGKVWVADDGAAVAVWTTPESVEAGAVFAEIGPRMAELSGSRLAAQQQMEGLLAPHRPKEPAWFLATVGVSPDHQGKGLGSAVVLPGVEAAERAGVPAFLETSAPRNLPFYERLGFTVTADVEVPEGPRTWCMTRKPGA", "values": [
      {"measurement": "NFAT-GFP ASSAY Positive Cell lines: NALM6", "result": "(+)"}
    ]},
    {"molecule": "012517-E12 (protein) MALPVTALLLPLALLLHAARPLEGKPIPNPLLGLDSTGSGEDLKNVFPPEVAVFEPSKAEIAHTQKATLVCLATGFYPDHVELSWWVNGKEVHSGVCTDPQPLKEQPALNDSRYCLSSRLRVSATFWQNPRNHFRCQVQFYGLSENDEWTQDRAKPVTQIVSAEAWGRADCGITSASYHQGVLSATILYEILLGKATLYAVLVSALVLMAMVKRKDSRGRAKRSGSGATNFSLLKQAGDVEENPGPTSMALPVTALLLPLALLLHAARPDIQMTQTTSSLSASLGDRVTISCRASQDISNYLNWYQQKPDGTVKLLIYYTSILHSGVPSRFSGSGSGTDYSLTISNLEQEDFATYFCQQGNTLPWTFGGGTKLEIKAGGGGSGGGGSGGGGSEVQLVESGGGLVKPGGSLKLSCAASGFAFSIYDMSWVRQTPEKRLEWVAYISSGGGTYYPDTVKGRFTISRDNAKNTLYLQMSSLKSEDTAMYYCARHSGYGTHWGVLFAYWGQGTLVTVSATREQKLISEEDGSGIQNPDPAVYQLRDSKSSDKSVCLFTDFDSQTNVSQSKDSDVYITDKCVLDMRSMDFKSNSAVAWSNKSDFACANAFNNSIIPEDTFFPSSDVPCDVKLVEKSFETDTNLNFQNLSVIGFRILLLKVAGFNLLMTLRLWSSRAKRSGSGVKQTLNFDLLKLAGDVESNPGPSRGHMTEYKPTVRLATRDDVPRAVRTLAAAFADYPATRHTVDPDRHIERVTELQELFLTRVGLDIGKVWVADDGAAVAVWTTPESVEAGAVFAEIGPRMAELSGSRLAAQQQMEGLLAPHRPKEPAWFLATVGVSPDHQGKGLGSAVVLPGVEAAERAGVPAFLETSAPRNLPFYERLGFTVTADVEVPEGPRTWCMTRKPGA", "values": [
      {"measurement": "NFAT-GFP ASSAY Positive Cell lines: NALM6", "result": "(+/−)"},
      {"measurement": "NFAT-GFP ASSAY Positive Cell lines: RAJI", "result": "RAJI (+), NALM6"}
    ]},
    {"molecule": "081516-I03 (protein, Polynucleotide encoding a Synthetic Immune Receptor (SIR)) MALPVTALLLPLALLLHAARPLEGKPIPNPLLGLDSTGSGEDLKNVFPPEVAVFEPSKAEIAHTQKATLVCLATGFYPDHVELSWWVNGKEVHSGVCTDPQPLKEQPALNDSRYCLSSRLRVSATFWQNPRNHFRCQVQFYGLSENDEWTQDRAKPVTQIVSAEAWGRADCGITSASYHQGVLSATILYEILLGKATLYAVLVSALVLMAMVKRKDSRGRAKRSGSGATNFSLLKQAGDVEENPGPTSTMALPVTALLLPLALLLHAARPDIVMTQSPSSLSASVGDRVTITCKASQSVTNDVAWYQQKPGKAPKLLIYYASNRYTGVPSRFSGSGSGTDFTLTISSLQPEDFATYYCQQDYRSPWTFGGGTKVEIKRGGGGSGGGGSGGGGSQVQLEESGGGVVRPGRSLRLSCAASGFTFSDYGVNWIRQAPGKGLEWVTIIWGDGRTDYNSALKSRFTVSRNNSNNTLSLQMNSLTTEDTAVYYCVRAPGNRAMEYWGQGVLVTVSSTREQKLISEEDLGSGTPFPSLAPPIMLLVDGKQQMVVVCLVLDVAPPGLDSPIWFSAGNGSALDAFTYGPSPATDGTWTNLAHLSLPSEELASWEPLVCHTGPGAEGHSRSTQPMHLSGEASTARTCPQEPLRGTPGGALWLGVLRLLLFKLLLFDLLLTCSCLCDPAGPLPSPATTTRLRALGSHRLHPATETGGREATSSPRPQPRDRRWGDTPPGRKPGSPVRAKRSGSGVKQTLNFDLLKLAGDVESNPGPSRSRGHMTEYKPTVRLATRDDVPRAVRTLAAAFADYPATRHTVDPDRHIERVTELQELFLTRVGLDIGKVWVADDGAAVAVWTTPESVEAGAVFAEIGPRMAELSGSRLAAQQQMEGLLAPHRPKEPAWFLATVGVSPDHQGKGLGSAVVLPGVEAAERAGVPAFLETSAPRNLPFYERLGFTVTADVEVPEGPRTWCMTRKPGA", "values": [
      {"measurement": "NFAT-GFP ASSAY Positive Cell lines: RAJI", "result": "RAJI (+/−)"}
    ]},
    {"molecule": "040417-W08 (protein) MALPVTALLLPLALLLHAARPQVQLVQSGAEVKKPGASVKVSCKASGYTFTSYDINWVRQATGQGLEWMGWMNPNSGNTGYAQKFQGRVTMTRNTSISTAYMELSSLRSEDTAVYYCARGDSTKVEIKLEIQNPDPAVYQLRDSKSSDKSVCLFTDFDSQTNVSQSKDSDVYITDKCVLDMRSMDFKSNSAVAWSNKSDFACANAFNNSIIPEDTFFPSSDVPCDVKLVEKSFETDTNLNFQNLSVIGFRILLLKVAGFNLLMTLRLWSSRAKRSGSGVKQTLNFDLLKLAGDVESNPGPTSMDWIWRILFLVGAATGAHSFEQSVLTQPRSVSGSPGQSVTISCTGTSSDVGGYNYVSWYQQHPGEAPKLIIYDADKRPSGISNRFSSGKSGNTASLTISGLQVEDEADYYCCSYAGGSTWVFGGGTKVTVLTREDLKNVFPPEVAVFEPSKAEIAHTQKATLVCLATGFYPDHVELSWWVNGKEVHSGVCTDPQPLKEQPALNDSRYCLSSRLRVSATFWQNPRNHFRCQVQFYGLSENDEWTQDRAKPVTQIVSAEAWGRADCGITSASYHQGVLSATILYEILLGKATLYAVLVSALVLMAMVKRKDSRGRAKRSGSGATNFSLLKQAGDVEENPGPSRGHMTEYKPTVRLATRDDVPRAVRTLAAAFADYPATRHTVDPDRHIERVTELQELFLTRVGLDIGKVWVADDGAAVAVWTTPESVEAGAVFAEIGPRMAELSGSRLAAQQQMEGLLAPHRPKEPAWFLATVGVSPDHQGKGLGSAVVLPGVEAAERAGVPAFLETSAPRNLPFYERLGFTVTADVEVPEGPRTWCMTRKPGA", "values": [
      {"measurement": "NFAT-GFP ASSAY Positive Cell lines: RAJI", "result": "RAJI (2+)"}
    ]}
  ]
}
